{"source": "paper PMC4089486", "about": "(Acta Crystallographica Section D: Biological Crystallography, 2014)", "binders": {"B1": {"name": "CdAlr cleavage product, amino acids 1-271 (domain or fragment)", "chain": "MQKITVPTWAEINLDNLRFNLNNIKNLLEEDIKICGVIKADAYGHGAVEVAKLLEKEKVDYLAVARTAEGIELRQNGITLPILNLGYTPDEAFEDSIKNKITMTVYSLETAQKINEIAKSLGEKACVHVKIDSGMTRIGFQPNEESVQEIIELNKLEYIDLEGMFTHFATADEVSKEYTYKQANNYKFMSDKLDEAGVKIAIKHVSNSAAIMDCPDLRLNMVRAGIILYGHYPSDDVFKDRLELRPAMKLKSKIGHIKQVEPGVGISYGLK"}}, "biological_target": "Clostridium difficile strain 630 alanine racemase, recombinant wild type (Clostridium difficile strain 630, UniProt A0AC59G415 1-385)", "experiment": "SEC", "conditions": "both partners purified"}
{"binder": "B1", "values": [{"measurement": "binding result", "value": "binds"}]}
